These results are taken from the supplement of paper PMC10724198.

The subject of the data set is Saccharomyces cerevisiae. The data set can be described thus: protein stability index of tFT-peptide fusion (C-terminal peptide) (PSI (0-1 scale)); higher = more stable (slower turnover). The conditions noted are these: temperature: 30 C. The method, then:
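MPS profiling in S. cerevisiae of the yeast C-terminome library: the last 12 aa of each annotated ORF are fused to the C-terminus of a sfGFP-mCherry timer, after a GGGS linker. Cells are FACS-sorted into 8 mCherry/sfGFP bins and deep-sequenced. PSI runs from 0 (unstable) to 1 (stable); wild type and das1Δ backgrounds, two technical replicates each.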

Setting [1] is: genetic background: das1 deletion.

± gives the standard deviation of the averaged measurements.

In turn, VVQFLVNLVCHT [YGR114C C-terminal 12 aa] yielded a protein stability index under setting [1] of 0.4879 ± 0.0042 and a protein stability index (genetic background: wild type) of 0.487 ± 0.011.

For VWCSVKKRLLEK [TIM23 C-terminal 12 aa], the protein stability index is, setting by setting: under setting [1], 0.724 ± 0.016; (genetic background: wild type) 0.732 ± 0.037.

With WAKRAFDGQFVK [DAP2 C-terminal 12 aa], the protein stability index under setting [1] was 0.717 ± 0.0086 and the protein stability index (genetic background: wild type) worked out at 0.735 ± 0.017.

Take WEAYLRRCGQQN [URA3 C-terminal 12 aa]: the protein stability index is, setting by setting: under setting [1], 0.697 ± 0.032; (genetic background: wild type) 0.658 ± 0.018.

On to WGIYEELVKRFM [HEM25 C-terminal 12 aa], for which the protein stability index amounted to 0.7094 ± 0.0066 under setting [1] and 0.707 ± 0.013 (genetic background: wild type).

Regarding WKEDADKNAGHK [OCH1 C-terminal 12 aa], the protein stability index came to 0.706 ± 0.012 under setting [1] and 0.731 ± 0.0062 (genetic background: wild type).

For WKLRAKYGIRKD [MGR2 C-terminal 12 aa], the protein stability index runs as follows: under setting [1], 0.6905 ± 0.0028; (genetic background: wild type) 0.684 ± 0.02.

On to WKLYQDYLSGKV [YER134C C-terminal 12 aa], for which the protein stability index under setting [1] turned out to be 0.695 ± 0.014 and the protein stability index (genetic background: wild type) was determined as 0.719 ± 0.08.

As to WLDKHTTTEAKP [YJU3 C-terminal 12 aa], the protein stability index was determined as 0.7087 ± 0.0036 under setting [1] and 0.705 ± 0.0089 (genetic background: wild type).

In the case of WQDFVPDEHISQ [VPS501 C-terminal 12 aa], the protein stability index runs as follows: under setting [1], 0.736 ± 0.0053; (genetic background: wild type) 0.792 ± 0.028.

Consider WSTFYYLCRKRE [CRG1 C-terminal 12 aa], for which the protein stability index amounted to 0.693 ± 0.014 under setting [1] and 0.701 ± 0.077 (genetic background: wild type).

With WYLQSVNLRDGV [HOL1 C-terminal 12 aa], the protein stability index by setting is: under setting [1], 0.6852 ± 0.005; (genetic background: wild type) 0.688 ± 0.035.

Regarding WYSRKNINSRFE [MTR10 C-terminal 12 aa], the protein stability index under setting [1] is 0.714 ± 0.059 and the protein stability index (genetic background: wild type) is 0.712 ± 0.046.

Turning to YAKFGDNINLER [GIM3 C-terminal 12 aa], the protein stability index was determined as 0.70175 ± 0.00021 under setting [1] and 0.698 ± 0.031 (genetic background: wild type).

YAWTRGLTNPIC [FEX1 C-terminal 12 aa]: the protein stability index is, setting by setting: under setting [1], 0.69727 ± 0.00064; (genetic background: wild type) 0.69 ± 0.0087.

For the sequence YELDGPYMSKRI [ELP3 C-terminal 12 aa], the protein stability index is, setting by setting: under setting [1], 0.6788 ± 0.0018; (genetic background: wild type) 0.704 ± 0.062.

With “YGANSQQTFEHT [YFR034W-A C-terminal 12 aa]”, the protein stability index under setting [1] amounted to 0.706 ± 0.011 and the protein stability index (genetic background: wild type) is 0.728 ± 0.026.

In turn, YIARNQKKGMSI [ECT1 C-terminal 12 aa] showed a protein stability index under setting [1] of 0.685 ± 0.011 and a protein stability index (genetic background: wild type) of 0.67 ± 0.015.

On to YIKEAQSACNDV [COS12 C-terminal 12 aa], for which the protein stability index was 0.692 ± 0.018 under setting [1] and 0.664 ± 0.03 (genetic background: wild type).

Turning to YKNLRKTSSSHL [NPY1 C-terminal 12 aa], the protein stability index reads like this: under setting [1], 0.843 ± 0.028; (genetic background: wild type) 0.84 ± 0.031.

In the case of YKTKYIWERLGK [SPC24 C-terminal 12 aa], the protein stability index reads like this: under setting [1], 0.69 ± 0.012; (genetic background: wild type) 0.694 ± 0.029.

For YKTQTGNFQVRL [APM3 C-terminal 12 aa], the protein stability index came out at 0.706 ± 0.0095 under setting [1] and 0.722 ± 0.0093 (genetic background: wild type).

With YLERRVRTLKKD [MRPL32 C-terminal 12 aa], the protein stability index was 0.713 ± 0.032 under setting [1] and 0.68 ± 0.013 (genetic background: wild type).

In the case of YLVHNNADEKSN [CUZ1 C-terminal 12 aa], the protein stability index worked out at 0.704 ± 0.034 under setting [1] and 0.695 ± 0.05 (genetic background: wild type).

As for YNDHRLPKRAKK [HSF1 C-terminal 12 aa], the protein stability index runs as follows: under setting [1], 0.6948 ± 0.0036; (genetic background: wild type) 0.7354 ± 0.0051.

Consider YNKLESNLQIFM [ABZ1 C-terminal 12 aa], for which the protein stability index is 0.697 ± 0.017 under setting [1] and 0.744 ± 0.0097 (genetic background: wild type).

On to “YPFTISYISPPY [YPR169W-A C-terminal 12 aa]”, for which the protein stability index runs as follows: under setting [1], 0.71 ± 0.067; (genetic background: wild type) 0.702 ± 0.025.

As for YPQQLLGYTDNG [YKL115C C-terminal 12 aa], the protein stability index under setting [1] was found to be 0.628 ± 0.013 and the protein stability index (genetic background: wild type) turned out to be 0.597 ± 0.0073.

Take “YSFNKLTMTILY [YER137W-A C-terminal 12 aa]”: the protein stability index reads like this: under setting [1], 0.6999 ± 0.0014; (genetic background: wild type) 0.633 ± 0.026.

YSIEVVPHGLIA [GLO1 C-terminal 12 aa]: the protein stability index reads like this: under setting [1], 0.607 ± 0.0097; (genetic background: wild type) 0.5946 ± 0.0015.

As for YTSKSFSPASSE [YMR181C C-terminal 12 aa], the protein stability index came out at 0.704 ± 0.031 under setting [1] and 0.668 ± 0.022 (genetic background: wild type).

YVFIVNHAAEQT [NUP116 C-terminal 12 aa] registered a protein stability index under setting [1] of 0.677 ± 0.024 and a protein stability index (genetic background: wild type) of 0.659 ± 0.009.

YVKQQHGQSQND [EAF6 C-terminal 12 aa]: the protein stability index runs as follows: under setting [1], 0.695 ± 0.021; (genetic background: wild type) 0.694 ± 0.022.
